The assay deals with UNC5H2 on human umbilical artery endothelial cells (HUAEC) (human) (UniProt Q8IZJ1). Kind of assay: cell-based or functional assay.
Chain of UniProt Q8IZJ1 (Q8IZJ1 other isoform, or with tags, fused parts or gaps limits assumed): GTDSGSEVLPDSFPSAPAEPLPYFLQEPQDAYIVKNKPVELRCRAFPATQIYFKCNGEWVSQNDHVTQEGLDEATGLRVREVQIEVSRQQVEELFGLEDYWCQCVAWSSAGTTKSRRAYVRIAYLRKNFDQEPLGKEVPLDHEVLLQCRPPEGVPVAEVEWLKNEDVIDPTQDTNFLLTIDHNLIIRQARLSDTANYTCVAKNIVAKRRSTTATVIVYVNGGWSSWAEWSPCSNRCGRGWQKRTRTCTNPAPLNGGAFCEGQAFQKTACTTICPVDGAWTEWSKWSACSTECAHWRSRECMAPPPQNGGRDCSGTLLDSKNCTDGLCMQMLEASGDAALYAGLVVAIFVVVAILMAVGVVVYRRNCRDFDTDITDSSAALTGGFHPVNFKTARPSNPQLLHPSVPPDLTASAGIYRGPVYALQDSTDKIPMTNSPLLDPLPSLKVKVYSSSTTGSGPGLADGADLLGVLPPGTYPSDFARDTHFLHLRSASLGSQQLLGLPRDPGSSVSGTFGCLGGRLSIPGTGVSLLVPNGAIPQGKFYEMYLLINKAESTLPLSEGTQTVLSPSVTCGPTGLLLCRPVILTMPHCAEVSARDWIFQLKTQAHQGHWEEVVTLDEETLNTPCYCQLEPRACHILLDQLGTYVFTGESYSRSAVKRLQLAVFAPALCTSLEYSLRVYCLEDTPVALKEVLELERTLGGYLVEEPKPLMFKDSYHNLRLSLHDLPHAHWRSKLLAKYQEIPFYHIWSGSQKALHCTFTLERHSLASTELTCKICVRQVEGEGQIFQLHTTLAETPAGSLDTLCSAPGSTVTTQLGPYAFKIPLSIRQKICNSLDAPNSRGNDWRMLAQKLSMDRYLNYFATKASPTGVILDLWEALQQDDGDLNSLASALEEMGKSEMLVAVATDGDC

For the substance “Netrin-1 secreted by stably transfected 293 cells (ligand)”, the decrease in transwell migration of HUAEC came to 40%.

For the origin of these results see patent publication US20060153840A1.
